Experimental data: article PMC9910054

Biological target: Mycobacterium tuberculosis chorismate mutase variant V55D (Mycobacterium tuberculosis)
Experiment: crystal structure; sitting drop vapor diffusion, 20 °C; protein 44 mg/mL in 20 mM Bis Tris propane, pH 7.5, 150 mM NaCl; reservoir 0.2 M zinc acetate dihydrate, 10% w/v PEG 3000, 0.1 M sodium acetate, pH 4.5; space group P22(1)2(1); 2.1 Å

With “Mycobacterium tuberculosis chorismate mutase variant V55D (enzyme)” as the substance, how does the stoichiometry N read?
The stoichiometry N was 2.
